Here are results for three molecules from publication PMC5387736, “SnoN Stabilizes the SMAD3/SMAD4 Protein Complex” (Scientific Reports, 2017).

T1: SnoN (M1-S356), untagged (UniProt P12757-1 1-356)
T1 construct: Cloned in pNIC28Bsa4; the asterisk marks the TEV cut, so SM probably remains at the N-terminus after cleavage; also called truncated SnoN (M1-S356, 38.6 kDa); not shown: His6, N-terminal, cleaved
T1 sequence (looked up): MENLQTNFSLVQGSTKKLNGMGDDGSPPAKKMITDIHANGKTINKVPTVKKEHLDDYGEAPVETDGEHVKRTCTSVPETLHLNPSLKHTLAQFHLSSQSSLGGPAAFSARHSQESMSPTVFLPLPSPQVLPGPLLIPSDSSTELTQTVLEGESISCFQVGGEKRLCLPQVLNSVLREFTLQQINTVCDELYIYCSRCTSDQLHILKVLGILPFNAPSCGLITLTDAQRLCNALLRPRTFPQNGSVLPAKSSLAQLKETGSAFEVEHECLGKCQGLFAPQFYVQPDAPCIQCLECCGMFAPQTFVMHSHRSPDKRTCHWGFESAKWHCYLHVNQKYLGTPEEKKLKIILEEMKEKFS

B1: SnoN SAND-domain (T238-S356) with C-terminal biotinylation sequence (domain or fragment, UniProt P12757-1 238-356, looked up)
chain: TFPQNGSVLPAKSSLAQLKETGSAFEVEHECLGKCQGLFAPQFYVQPDAPCIQCLECCGMFAPQTFVMHSHRSPDKRTCHWGFESAKWHCYLHVNQKYLGTPEEKKLKIILEEMKEKFS
notes: SnoN, SAND domain, residues T238-S356; Cloned in pNicBio3 for the SPR analysis; In the SPR it was the analyte, SMAD4 was amine-coupled; also called SnoN (T238-S356)
B2: His-tagged MH2 domain of SMAD4 (I314-Q549) (domain or fragment, UniProt Q13485 314-549, looked up)
chain: ISNHPAPEYWCSIAYFEMDVQVGETFKVPSSCPIVTVDGYVDPSGGDRFCLGQLSNVHRTEAIERARLHIGKGVQLECKGEGDVWVRCLSDHAVFVQSYYLDREAGRAPGDAVHKIYPSAYIKVFDLRQCHRQMQQQAATAQAAAAAQAAAVAGNIPGPGSVGGIAPAISLSAAAGIGVDDLRRLCILRMSFVKGWGPDYPRQSIKETPCWIEIHLHRALQLLDEVLHTMPIADPQ
notes: SMAD4, MH2 domain, residues I314-Q549; Cloned in pNIC28Bsa4; also called ^HisSMAD4; not shown: His6, N-terminal, kept

Assay [1] addresses Strep II-tagged MH2 domain of SMAD3 (S423E, S425D), E145-D425. In words: SEC; gel filtration of the single proteins in buffer A (Superdex 200 for SMAD4 and SnoN constructs, Sephacryl 300 for SMAD3); oligomeric state from the retention volume. For orientation: In gel filtration, larger molecules generally elute earlier.
For another assay, the target named is T1, SnoN (M1-S356), untagged. In words: fluorescence labelling of cysteines (IRDye 800CW maleimide) and gel scanning; Ni-NTA eluate of the isolated SnoN-SMAD3-SMAD4 complex, boiled in 1% SDS, labelled, SDS-PAGE, near-infrared imaging; three measurements.
The target in assay [2] is B2. In words: SPR; BIAcore 2000; SMAD4 (I314-Q549) amine-coupled on CM5 (about 1300 RU); SnoN SAND domain 0-500 nM injected; 10 mM HEPES pH 7.4, 150 mM NaCl, 0.005% TWEEN-20, 0.5 mM TCEP; room temperature; one-step binding model. Conditions: both partners purified.
For assay [3], the target named is B2. In words: crystal structure; SnoN SAND domain with SMAD4 MH2 domain, complex reconstituted 1:1; sitting drop, 2.8-3.3 M NaCl, 0.1 M Bis-Tris pH 5.5, 20 °C; 2.6 Å.

By stoichiometry N is commonly meant the number of molecules, sites or subunits per partner or assembly. Molecule “Strep II-tagged MH2 domain of SMAD3 (S423E, S425D), E145-D425 (domain or fragment)” displayed a stoichiometry N in assay [1] of 3. In the assay with SnoN (M1-S356), untagged, this molecule gave a stoichiometry N (SMAD3 per SnoN) of 2.1.

Usually Kd stands for the free concentration of one partner at which half of the binding sites on the other are occupied at equilibrium, for simple one-to-one binding. The low end stands for a tighter complex, the high end for a looser complex. Broadly, the koff is the first-order rate constant of dissociation. Low values mean slow dissociation, high ones fast dissociation. One may read the kon as the rate constant with which the complex forms. A high value points to fast association. Regarding B1, in assay [2], binding was characterised by a dissociation constant (Kd) of 1100 nM, the koff worked out at 0.129 s⁻¹ and the on-rate constant (kon) came out at 120000 M⁻¹ s⁻¹.

Turning to B2, the stoichiometry N in assay [3] turned out to be 3; with SnoN (M1-S356), untagged (both partners purified), 1.2 SMAD4 per SnoN.
